These results are taken from publication doi:10.1101/2020.06.12.148478 (bioRxiv, 2020).

Data set [1] addresses TacA (Caulobacter crescentus). Kind of data set: SEC-MALS.
Data set [2] deals with T1, SpbR (Caulobacter crescentus, UniProt Q9A5X4 1-377).
T1 sequence (looked up): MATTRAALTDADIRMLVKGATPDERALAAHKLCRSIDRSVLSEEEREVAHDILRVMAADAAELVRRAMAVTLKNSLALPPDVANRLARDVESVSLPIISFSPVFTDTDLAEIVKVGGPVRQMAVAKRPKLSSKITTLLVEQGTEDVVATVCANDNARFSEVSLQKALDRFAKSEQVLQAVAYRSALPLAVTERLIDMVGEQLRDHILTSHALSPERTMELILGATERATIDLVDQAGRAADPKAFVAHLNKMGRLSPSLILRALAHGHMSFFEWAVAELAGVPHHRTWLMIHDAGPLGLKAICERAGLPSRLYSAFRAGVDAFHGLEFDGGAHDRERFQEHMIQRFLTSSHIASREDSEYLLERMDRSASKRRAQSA
Kind of data set: ITC. In general terms: ITC needs no label: the signal is the heat of the interaction.

Data set [3] concerns the target PopA (Caulobacter crescentus). Kind of data set: SEC-MALS.
The data set “MST” concerns the molecule itself. Kind of data set: MST.
Data set [4] deals with T1, SpbR. Kind of data set: SEC-MALS.
The data set “SEC-MALS” deals with the molecule itself. As to the kind of experiment: SEC-MALS. (In general: SEC sorts molecules by how far they enter the pores of the column.)

As for TacA (natural protein), the stoichiometry N (usually the number of molecules, sites or subunits per partner or assembly) in data set [1] turned out to be 2 subunits.

B1: RcdA (natural protein, Caulobacter crescentus, UniProt A0A0H3CD07 1-169, looked up)
chain: MTEVNAFADTPWRAGVIQDFARSELFDRTFEEGMQLVEETAAYLDGAGRHDSKVLSRNAALGYATESMRLTTRLMQVASWLLVQRAVREGEMPPEAACAEAYRLAEEAPADGPAVEELPFGLMNLLQRSERLYERVRHLDRRMYVESPNEEAPRPVQNQLDRLTAAFGG
modifications: Fluorescin-5-Maleimide on cysteine in the fluorescence polarisation and MST experiments only; unlabelled elsewhere
Regarding B1, the values for the Kd with SpbR [2] and in the data set “MST” were 3.3 µM and 2.9 µM, respectively. This molecule also gave a stoichiometry N (RcdA per PopA) in data set [3] of 1. The molecule also gave a stoichiometry N (RcdA per TacA chain (1 RcdA : 2 TacA)) in data set [1] of 0.5. For the same molecule, the “stoichiometry N” value with SpbR [4] came to 1 RcdA per SpbR; in “SEC-MALS”, 2 subunits.
